This is an account of results in paper PMC5679434 (Nature methods, 2017).

In the assay the target is Thermoplasma acidophilum 20S proteasome α-subunit (Thermoplasma acidophilum, UniProt P25156 1-233). The experiment in a line: cryo-EM structure.
Sequence of Thermoplasma acidophilum 20S proteasome α-subunit (P25156 whole entry): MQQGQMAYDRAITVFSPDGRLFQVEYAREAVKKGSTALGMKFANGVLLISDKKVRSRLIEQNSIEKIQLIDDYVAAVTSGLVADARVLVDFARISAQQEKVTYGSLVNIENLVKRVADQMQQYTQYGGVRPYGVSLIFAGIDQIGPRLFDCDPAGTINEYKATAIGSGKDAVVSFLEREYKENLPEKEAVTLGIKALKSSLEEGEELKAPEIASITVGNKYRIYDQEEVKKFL

B1: Thermoplasma acidophilum 20S proteasome β-subunit (natural protein, UniProt P28061 9-211, looked up)
chain: TTTVGITLKDAVIMATERRVTMENFIMHKNGKKLFQIDTYTGMTIAGLVGDAQVLVRYMKAELELYRLQRRVNMPIEAVATLLSNMLNQVKYMPYMVQLLVGGIDTAPHVFSIDAAGGSVEDIYASTGSGSPFVYGVLESQYSEKMTVDEGVDLVIRAISAAKQRDSASGGMIDVAVITRKDGYVQLPTDQIESRIRKLGLIL
B1: the binding result is on record as “binds”.
